Source: US20170008933A1 (GlaxoSmithKline, published 2017)
Where a chain is given by its changes, count along the chain named. Names may count otherwise.

Assays:
[1] = target: T1, human factor H (human, UniProt P08603 19-1231); assay: SPR against immobilised fH
T1 construct: Immobilised on the chip in the SPR experiments; also called fH

[2] = target: T1, human factor H; assay: SPR

T1 sequence (P08603 19-1231 limits assumed): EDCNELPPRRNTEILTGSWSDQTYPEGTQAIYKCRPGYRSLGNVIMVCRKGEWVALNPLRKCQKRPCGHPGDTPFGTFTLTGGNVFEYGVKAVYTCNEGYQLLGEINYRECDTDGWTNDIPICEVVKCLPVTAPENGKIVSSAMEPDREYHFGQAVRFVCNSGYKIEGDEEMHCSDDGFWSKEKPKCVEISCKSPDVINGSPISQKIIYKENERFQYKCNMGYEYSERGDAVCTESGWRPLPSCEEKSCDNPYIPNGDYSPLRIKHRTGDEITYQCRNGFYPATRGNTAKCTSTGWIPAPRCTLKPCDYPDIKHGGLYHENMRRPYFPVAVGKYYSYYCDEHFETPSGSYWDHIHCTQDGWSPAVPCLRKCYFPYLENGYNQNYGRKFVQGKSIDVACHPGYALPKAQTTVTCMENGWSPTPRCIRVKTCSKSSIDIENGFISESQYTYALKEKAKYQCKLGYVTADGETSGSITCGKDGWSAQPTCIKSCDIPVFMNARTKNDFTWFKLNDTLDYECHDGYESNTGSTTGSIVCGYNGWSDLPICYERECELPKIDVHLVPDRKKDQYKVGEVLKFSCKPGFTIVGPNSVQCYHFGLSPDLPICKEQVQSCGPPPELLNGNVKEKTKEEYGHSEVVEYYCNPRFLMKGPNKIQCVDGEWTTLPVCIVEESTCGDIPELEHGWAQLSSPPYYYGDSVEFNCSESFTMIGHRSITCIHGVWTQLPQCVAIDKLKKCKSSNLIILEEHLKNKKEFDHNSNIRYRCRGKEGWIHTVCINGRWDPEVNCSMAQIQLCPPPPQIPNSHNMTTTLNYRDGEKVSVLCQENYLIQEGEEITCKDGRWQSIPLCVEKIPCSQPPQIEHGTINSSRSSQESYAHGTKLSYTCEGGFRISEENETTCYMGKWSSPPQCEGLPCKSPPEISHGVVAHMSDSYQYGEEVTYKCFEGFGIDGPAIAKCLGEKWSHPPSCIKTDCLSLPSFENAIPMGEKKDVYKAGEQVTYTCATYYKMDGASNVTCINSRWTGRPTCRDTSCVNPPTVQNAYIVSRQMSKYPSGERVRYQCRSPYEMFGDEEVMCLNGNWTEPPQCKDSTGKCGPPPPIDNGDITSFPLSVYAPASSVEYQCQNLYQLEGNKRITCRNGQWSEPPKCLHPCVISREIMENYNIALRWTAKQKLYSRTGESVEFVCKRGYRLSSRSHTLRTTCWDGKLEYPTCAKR

B1: wild-type v2 fHbp (strain 2996) (other)
chain: VAADIGAGLADALTAPLDHKDKSLQSLTLDQSVRKNEKLKLAAQGAEKTYGNGDSLNTGKLKNDKVSRFDFIRQIEVDGQLITLESGEFQIYKQDHSAVVALQIEKINNPDKIDSLINQRSFLVSGLGGEHTAFNQLPDGKAEYHGKAFSSDDAGGKLTYTIDFAAKQGHGKIEHLKTPEQNVELAAAELKADEKSHAVILGDTRYGSEEKGTYHLALFGDRAQEIAGSATVKIGEKVHEIGIAGKQ
notes: Recombinant purified protein; The exact construct used in SPR is not spelled out; also called v2 w.t
binding result [1]: binds

B2: v2 fHbp combined mutant #2 + #12 (other)
chain: B1 chain with S32V, L123R, V124I, S125G, G126D, L127I, G128A
notes: also called mutant #23; S32V + L123-G128 RIGDIA
fold reduction of the SPR peak value [2]: ~8 fold

B3: v2 fHbp mutant #2 (S58V) (other)
chain: B1 chain with S32V
notes: also called S32V
binding result [1]: binds

B4: v2 fHbp mutant #3 + 'E313A' (other)
chain: B1 chain with S32V, L123R, E240A
notes: also called S32V + L123R + E240A
binding result [2]: no binding

B5: v2 fHbp mutant #4 (L149R) (other)
chain: B1 chain with L123R
notes: also called L123R
binding result [1]: binds

B6: v3 fHbp L149R mutant (L126R of SEQ ID NO: 17) (other)
chain: VAADIGTGLADALTAPLDHKDKGLKSLTLEDSIPQNGTLTLSAQGAEKTFKAGDKDNSLNTGKLKNDKISRFDFVQKIEVDGQTITLASGEFQIYKQNHSAVVALQIEKINNPDKTDSLINQRSFRVSGLGGEHTAFNQLPGGKAEYHGKAFSSDDPNGRLHYSIDFTKKQGYGRIEHLKTLEQNVELAAAELKADEKSHAVILGDTRYGSEEKGTYHLALFGDRAQEIAGSATVKIGEKVHEIGIAGKQ
notes: also called v3 equivalent of mutant #4
binding result [2]: binds

B7: v3 fHbp S58V mutant (S32V of SEQ ID NO: 17) (other)
chain: B6 chain with S32V, R126L
notes: also called v3 equivalent of mutant #2
fold reduction of the SPR peak value against wild-type v3 [2]: ~2 fold
